Source: patent EP1160320A1 (INSTITUT NATIONAL DE LA SANTE ET DE LA RECHERCHE MEDICALE …, dated 2001)

Target: T1, hTAFII80δ (human, UniProt P49848 1-677)
T1 construct: Endogenous protein immunoprecipitated from HeLa extracts; also called hTAFII80 delta; δ isoform of hTAFII80
Assay: co-immunoprecipitation of endogenous hTAFII80δ complexes from HeLa cells, immunoblot

T1 sequence (P49848 other isoform, or with tags, fused parts or gaps mutant limits assumed): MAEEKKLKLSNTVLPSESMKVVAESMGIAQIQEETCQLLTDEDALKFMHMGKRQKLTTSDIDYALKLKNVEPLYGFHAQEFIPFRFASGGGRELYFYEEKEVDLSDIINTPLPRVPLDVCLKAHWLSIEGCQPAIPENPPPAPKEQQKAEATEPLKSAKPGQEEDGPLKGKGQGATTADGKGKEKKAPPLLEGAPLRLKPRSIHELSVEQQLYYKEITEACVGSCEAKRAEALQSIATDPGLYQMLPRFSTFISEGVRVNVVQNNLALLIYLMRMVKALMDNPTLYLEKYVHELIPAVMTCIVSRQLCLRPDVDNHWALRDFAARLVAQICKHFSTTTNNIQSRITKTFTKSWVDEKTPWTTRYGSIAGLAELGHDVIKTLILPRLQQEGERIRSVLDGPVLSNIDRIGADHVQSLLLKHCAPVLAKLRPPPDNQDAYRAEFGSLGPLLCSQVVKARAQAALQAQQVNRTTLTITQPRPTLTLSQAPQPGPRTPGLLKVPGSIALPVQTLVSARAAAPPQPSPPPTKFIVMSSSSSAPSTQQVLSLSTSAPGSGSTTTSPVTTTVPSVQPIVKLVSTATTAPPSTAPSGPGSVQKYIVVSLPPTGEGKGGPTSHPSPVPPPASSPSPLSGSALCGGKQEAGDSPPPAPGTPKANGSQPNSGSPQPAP

B1: hTAFII31 (other, human, UniProt Q16594 1-264, looked up)
chain: MESGKTASPKSMPKDAQMMAQILKDMGITEYEPRVINQMLEFAFRYVTTILDDAKIYSSHAKKATVDADDVRLAIQCRADQSFTSPPPRDFLLDIARQRNQTPLPLIKPYSGPRLPPDRYCLTAPNYRLKSLQKKASTSAGRITVPRLSVGSVTSRPSTPTLGTPTPQTMSVSTKVGTPMSLTGQRFTVQMPTSQSPAVKASIPATSAVQNVLINPSLIGSKNILITTNMMSSQNTANESSNALKRKREDDDDDDDDDDDYDNL
notes: Baculovirus-produced in SF9 extracts for the pull-down; endogenous in HeLa cells for the co-immunoprecipitation; No tag is stated; also called recombinant hTAFII31; histone H3-like hTAFII31
B1: no binding.
